Laboratory results as given in patent US20260041732A1, “USE OF APELIN FOR THE TREATMENT OF LYMPHEDEMA” (INSTITUT NATIONAL DE LA SANTE ET DE LA RECHERCHE MEDICALE, priority 2022, published 2026).

Legend:
Format in all cases: cell-based
[1] = test system: Human dermal lymphatic endothelial cells (HDLEC); experiment: Cell migration, cell junction and cytoskeleton remodeling
[2] = test system: Human dermal lymphatic endothelial cells (HDLEC); experiment: Immunoblotting of AKT, ERK and eNOS phosphorylation; conditions: conditioned media
Description: Human dermal lymphatic endothelial cells (HDLEC) (single donor, juvenile foreskin, Promocell, C-12216, >95% of the cells are CD31 positive and podoplanin positive) were cultured in Endothelial Cell Media MV2 (EGM-MV2, Promocell, C-22121). NIH3T3 were cultured in Dulbecco's modified Eagle's medium (DMEM, Sigma, D6429) supplemented with 10% fetal bovine serum (FBS, Gibco, 10270-06) and 1% penicillin-streptomycin. Endothelial cells were used at passage 3-6 and human fibroblasts were used at passage 4-7. Cells were cultured at 37° C. in a 5% CO2 incubator. Culture medium was changed 3 times a week, and the cells were passaged ⅓. For collecting conditioned media, NIH3T3 were grown in 10 cm dishes, after reaching confluence, medium was removed and the cells were washed once with PBS. NIH3T3 were cultured overnight in 5 mL reduced serum medium optiMEM (Gibco), the medium was then collected and used for experiments. HDLEC were treated with 50% conditioned media/50% MV2-05% FBS.
Cells were scrapped and lysed in RIPA buffer (RIPA 2X, Biotech RB4476) supplemented with phosphatase inhibitor (PhosSTOP Easypack, Roche0490687001) and protease inhibitors (protease inhibitor cocktail, Sigma Aldrich). Lysates were centrifuged at 13500 g for 10 minutes at 4° C. Supernatants were then collected and mix with Laemmli buffer containing dithiothreitol (DTT 1 mM). Protein were resolved on 4-15% SDS-PAGE gels and transferred to nitrocellulose membrane (Trans-Blot Turbo RTA transfer kit, #1704271, Biorad). Membranes were blocked for 1h at room temperature in 5% BSA-TBS-T (TBS-0.1% Tween 20) and probed with primary antibody overnight at 4° C. Antibody used are the following: Phospho AKT: AKT-p ser473 (CS #4060S), AKT: santa cruz H136 (S8312), Phospho ERK: ERK1/2-p (MAPKp42/44) (Thr202/Thr204) (cell signalling #9106), ERK ERK1/2-(MAPKp42/44) (Thr202/Thr204) (cell signalling #9102), Phospho eNOS (cell signalling #9571S), eNOS (cell signalling #5880S), E2F8 (Abcam, AB109596), VEGFR3 (RID system AF349), Phospho-VEGFR3 (Affinity AF3676), CCBE1 (Sigma SAB1402017).
After three washes in TBS-T, membranes were probed with HRP-conjugated secondary antibodies at 1/10000 dilution. Signals were visualized with chemiluminescence detection reagent (Sigma) on a Chemidoc (Biorad) digital acquisition system.

[3] = test system: Human dermal lymphatic endothelial cells (HDLEC); experiment: Bulk RNA-sequencing, differential gene expression and GO analysis
Description: Human dermal lymphatic endothelial cells (HDLEC) (single donor, juvenile foreskin, Promocell, C-12216, >95% of the cells are CD31 positive and podoplanin positive) were cultured in Endothelial Cell Media MV2 (EGM-MV2, Promocell, C-22121). NIH3T3 were cultured in Dulbecco's modified Eagle's medium (DMEM, Sigma, D6429) supplemented with 10% fetal bovine serum (FBS, Gibco, 10270-06) and 1% penicillin-streptomycin. Endothelial cells were used at passage 3-6 and human fibroblasts were used at passage 4-7. Cells were cultured at 37° C. in a 5% CO2 incubator. Culture medium was changed 3 times a week, and the cells were passaged ⅓. For collecting conditioned media, NIH3T3 were grown in 10 cm dishes, after reaching confluence, medium was removed and the cells were washed once with PBS. NIH3T3 were cultured overnight in 5 mL reduced serum medium optiMEM (Gibco), the medium was then collected and used for experiments. HDLEC were treated with 50% conditioned media/50% MV2-05% FBS. Total RNA from HDLEC transduced or not with Apelin Lentivector were prepared using the RNeasy mini kit (Qiagen 74106). Total RNA were then subjected to ribosomal-RNA depleted RNA sequencing (RNA-Seq) protocol performed by Genewiz company using Illumina HiSeq, PE 2×150 configuration. Sequence reads were trimmed to remove possible adapter sequences and nucleotides with poor quality using Trimmomatic v.0.36. The trimmed reads were mapped to the Homo sapiens GRCh38 reference genome available on ENSEMBL using the STAR aligner v.2.5.2b. The STAR aligner is a splice aligner that detects splice junctions and incorporates them to help align the entire read sequences. BAM files were generated as a result of this step. Unique gene hit counts were calculated by using feature Counts from the Subread package v.1.5.2. The hit counts were summarized and reported using the gene_id feature in annotation file. Only unique reads that fell within exon regions were counted. Distribution of read counts in libraries were examined before and after normalization. The original read counts were normalized to adjust for various factors such as variations of sequencing yield between samples. These normalized read counts were used to accurately determine differentially expressed genes. Data quality assessments were performed to detect any samples that are not representative of their group, and thus, may affect the quality of the analysis. The overall similarity among samples were assessed by the Euclidean distance between samples. This method was used to examine which samples are similar/different to each other and if they fit to the expectation from the experiment design. The shorter the distance, the more closely related the samples are. Samples were then clustered by using the distance. A principal component analysis was also performed to reveal the similarity between samples based on the distance matrix. After extraction of gene hit counts, the gene hit counts table was used for downstream differential expression analysis. Using DESeq2, a comparison of gene expression between Apelin transduced LEC against non-transduced LEC was performed. The Wald test was used to generate p-values and log2 fold changes. […] The global transcriptional change across the two groups compared was visualized by a volcano plot. Each data point in the volcano plot represents a gene. The log2 fold change of each gene is represented on the x-axis and the log10 of its adjusted p-value is on the y-axis.

B1: APELIN: bioactive peptide apelin, endogenous ligand of APJ; applied to HDLEC as conditioned media from LV-Apelin transduced NIH3T3 or by transduction (protein, listed as Homo sapiens)
chain: MNLRLCVQALLLLWLSLTAVCGGSLMPLPDGNGLEDGNVRHLVQPRGSRNGPGPWQGGRRKFRRQRPRLSHKGPMPF
endothelial monolayer integrity [1]: no effect | cell junction or cytoskeleton remodeling ([1]; HDLEC): no effect | cell migration ([1]; HDLEC): activation of cell migration | eNOS phosphorylation ([2]; HDLEC): observed | AKT activation (phosphorylation) ([2]; 24 h time course): stimulated Akt phosphorylation after 1 hour | ERK activation ([2]; 24 h time course): without major effect | AKT activation (phosphorylation) ([2]; 24 h time course, listed as apelin): lesser extent than the phosphorylation induced by VEGF-C | GO analysis of down regulated genes [3]: no biological process was significantly affected | GO analysis for biological process, upregulated genes ([3]; FDR<0.05): enriched (FDR<0.05) for terms related to extracellular matrix (ECM) remodelling and signalisation | number of genes up regulated by both apelin and VEGF-C ([3]; HDLEC, conditioned media): 43 genes | number of genes up regulated by both apelin and apelin+VEGF-C ([3]; HDLEC, conditioned media): 31 genes | number of genes up regulated by both apelin, VEGF-C and apelin+VEGF-C ([3]; HDLEC, conditioned media): 19 genes | expression of E2F8 ([3]; LEC): stimulated | expression of genes related to VEGFC maturation (ADAMTS2, CCBE1) ([3]; compared to WT): improved | number of genes deregulated ([3]; conditioned media vs control NIH3T3 media, p.adj<0.05 and Log2 fold change<-0.5 or >0.5): 217 genes | number of genes down regulated ([3]; p.adj<0.05, Log2 fold change <-0.5): 123 genes | number of genes up regulated ([3]; p.adj<0.05, Log2 fold change >0.5): 94 genes
